The target in experiment [1] is Y14D-Cav-1-YFP (phosphomimicking mutant) (human) (UniProt Q03135). Put plainly: co-IP.
Experiment [2] addresses T1, Y14D-Cav-1-YFP (phosphomimicking mutant) (human, UniProt Q03135 1-178, Y14D).
T1 sequence: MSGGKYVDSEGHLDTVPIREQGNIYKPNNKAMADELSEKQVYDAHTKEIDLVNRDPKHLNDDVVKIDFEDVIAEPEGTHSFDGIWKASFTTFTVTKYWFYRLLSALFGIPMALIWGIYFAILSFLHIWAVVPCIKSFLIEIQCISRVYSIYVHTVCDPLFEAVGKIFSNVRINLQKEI
Description: co-IP.

For “eNOS-S1177D-CFP (phosphomimicking mutant) (from UniProt P29474-1 1-1203) (enzyme)”, the fold binding against WT-eNOS with WT-Cav-1 in experiment [1] stood at 4.2 fold.

B1: WT-eNOS-CFP, expressed in HEK cells (enzyme)
chain: MGNLKSVAQEPGPPCGLGLGLGLGLCGKQGPATPAPEPSRAPASLLPPAPEHSPPSSPLTQPPEGPKFPRVKNWEVGSITYDTLSAQAQQDGPCTPRRCLGSLVFPRKLQGRPSPGPPAPEQLLSQARDFINQYYSSIKRSGSQAHEQRLQEVEAEVAATGTYQLRESELVFGAKQAWRNAPRCVGRIQWGKLQVFDARDCRSAQEMFTYICNHIKYATNRGNLRSAITVFPQRCPGRGDFRIWNSQLVRYAGYRQQDGSVRGDPANVEITELCIQHGWTPGNGRFDVLPLLLQAPDDPPELFLLPPELVLEVPLEHPTLEWFAALGLRWYALPAVSNMLLEIGGLEFPAAPFSGWYMSTEIGTRNLCDPHRYNILEDVAVCMDLDTRTTSSLWKDKAAVEINVAVLHSYQLAKVTIVDHHAATASFMKHLENEQKARGGCPADWAWIVPPISGSLTPVFHQEMVNYFLSPAFRYQPDPWKGSAAKGTGITRKKTFKEVANAVKISASLMGTVMAKRVKATILYGSETGRAQSYAQQLGRLFRKAFDPRVLCMDEYDVVSLEHETLVLVVTSTFGNGDPPENGESFAAALMEMSGPYNSSPRPEQHKSYKIRFNSISCSDPLVSSWRRKRKESSNTDSAGALGTLRFCVFGLGSRAYPHFCAFARAVDTRLEELGGERLLQLGQGDELCGQEEAFRGWAQAAFQAACETFCVGEDAKAAARDIFSPKRSWKRQRYRLSAQAEGLQLLPGLIHVHRRKMFQATIRSVENLQSSKSTRATILVRLDTGGQEGLQYQPGDHIGVCPPNRPGLVEALLSRVEDPPAPTEPVAVEQLEKGSPGGPPPGWVRDPRLPPCTLRQALTFFLDITSPPSPQLLRLLSTLAEEPREQQELEALSQDPRRYEEWKWFRCPTLLEVLEQFPSVALPAPLLLTQLPLLQPRYYSVSSAPSTHPGEIHLTVAVLAYRTQDGLGPLHYGVCSTWLSQLKPGDPVPCFIRGAPSFRLPPDPSLPCILVGPGTGIAPFRGFWQERLHDIESKGLQPTPMTLVFGCRCSQLDHLYRDEVQNAQQRGVFGRVLTAFSREPDNPKTYVQDILRTELAAEVHRVLCLERGHMFVCGDVTMATNVLQTVQRILATEGDMELDEAGDVIGVLRDQQRYHEDIFGLTLRTQEVTSRIRTQSFSLQERQLRGAVPWAFDPPGSDTNSP
For the molecule B1, the “fold binding against WT-eNOS with WT-Cav-1” value in experiment [2] was found to be 4.2 fold.

For the origin of these results see article PMC3315804 (Molecular Biology of the Cell, 2012).
